Measurements reported in patent US20240424060A1 (DOMPE FARMACEUTICI, published 2024).

What was measured:
[1] = biological target: TrKA receptor immobilized on the SPR sensor surface; assay: SPR, receptor immobilized, steady-state 1:1 fit (KDeq)
[2] = biological target: p75^NTR receptor immobilized on the SPR sensor surface; assay: as above
[3] = biological target: T1, rhNGF-1: recombinant human NGF from R&D Systems Inc (product code: 256-GF/CF), manufactured in a mouse … (human, UniProt P01138 122-241; P01138 122-240; P01138 122-239; P01138 122-238); assay: SPR, receptor immobilized, kinetic fit (BIA evaluation)
T1 construct: A commercial MIXTURE of isoforms, not a complex of four chains: the four entries are alternative forms
T1 sequence (P01138 122-241 limits assumed, chain 1 of 4): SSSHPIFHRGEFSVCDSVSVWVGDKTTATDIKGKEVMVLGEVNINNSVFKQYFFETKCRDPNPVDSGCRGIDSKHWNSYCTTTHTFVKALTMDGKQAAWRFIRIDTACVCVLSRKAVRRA
T1 sequence (P01138 122-240 limits assumed, chain 2 of 4): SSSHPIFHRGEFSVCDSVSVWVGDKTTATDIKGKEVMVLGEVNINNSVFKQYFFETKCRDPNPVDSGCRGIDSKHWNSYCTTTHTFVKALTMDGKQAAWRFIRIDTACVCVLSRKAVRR
T1 sequence (P01138 122-239 limits assumed, chain 3 of 4): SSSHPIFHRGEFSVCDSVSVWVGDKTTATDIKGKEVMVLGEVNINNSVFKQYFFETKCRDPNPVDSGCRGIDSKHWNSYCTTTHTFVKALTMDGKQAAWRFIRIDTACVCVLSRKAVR
T1 sequence (P01138 122-238 limits assumed, chain 4 of 4): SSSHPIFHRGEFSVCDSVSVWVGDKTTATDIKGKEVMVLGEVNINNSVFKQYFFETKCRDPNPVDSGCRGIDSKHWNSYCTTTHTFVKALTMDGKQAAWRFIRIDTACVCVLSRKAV

[4] = biological target: T1, rhNGF-1: recombinant human NGF from R&D …; assay: SPR, receptor immobilized, kinetic Kd (Koff/Kon)
[5] = biological target: T2, Recombinant human NGF (rhNGF) having an aminoacid sequence of 118 aminoacids (rhNGF-118) (human, UniProt P01138 122-239); assay: SPR, receptor immobilized, kinetic Kd (Koff/Kon)
T2 construct: Made in E. coli from proNGF mutant SP174-101
T2 sequence (P01138 122-239 limits assumed): as the sequence (P01138 122-239 limits assumed, chain 3 of 4) above

[6] = biological target: T1, rhNGF-1: recombinant human NGF from R&D …; assay: SPR, receptor immobilized, steady-state 1:1 fit (KDeq)
[7] = biological target: T2, Recombinant human NGF (rhNGF) having an …; assay: as above
[8] = biological target: T2, Recombinant human NGF (rhNGF) having an …; assay: SPR, receptor immobilized, kinetic fit (BIA evaluation)

“rhNGF2: recombinant human NGF from Active Bioscience (product code 1745.955), manufactured in CHO cells (from UniProt P01138 122-238) (ligand)” showed a Kd [1] of 3.85 nM and a Kd [2] of 15.7 nM.

With “rhNGF3: recombinant human NGF from Sino Biological (product code: 11050-HNAC), manufactured in CHO cells (from UniProt P01138 122-238) (ligand)” the Kd [1] was 6 nM and the Kd [2] was 39.1 nM.

B1: p75^NTR receptor immobilized on the SPR sensor surface (receptor)
chain: KEACPTGLYTHSGECCKACNLGEGVAQPCGANQTVCEPCLDSVTFSDVVSATEPCKPCTECVGLQSMSAPCVEADDAVCRCAYGYYQDETTGRCEACRVCEAGSGLVFSCQDKQNTVCEECPDGTYSDEANHVDPCLPCTVCEDTERQLRECTRWADAECEEIPGRWITRSTPPEGSDSTAPSTQEPEAPPEQDLIASTVAGVVTTVMGSSQPVVTRGTTDN
Work on B1 yielded a koff [3] of 0.0111 s⁻¹, a kon [3] of 8.3e+06 M⁻¹ s⁻¹ and a Kd [4] of 1.33 nM. The Kd [5] was 2.6 nM, the Kd [6] was 5.06 nM and the Kd [7] was 7.1 nM.

B2: TrKA receptor immobilized on the SPR sensor surface (receptor)
chain: AAPCPDACCPHGSSGLRCTRDGALDSLHHLPGAENLTELYIENQQHLQHLELRDLRGLGELRNLTIVKSGLRFVAPDAFHFTPRLSRLNLSFNALESLSWKTVQGLSLQELVLSGNPLHCSCALRWLQRWEEEGLGGVPEQKLQCHGQGPLAHMPNASCGVPTLKVQVPNASVDVGDDVLLRCQVEGRGLEQAGWILTELEQSATVMKSGGLPSLGLTLANVTSDLNRKNVTCWAENDVGRAEVSVQVNVSFPASVQLHTAVEMHHWCIPFSVDGQPAPSLRWLFNGSVLNETSFIFTEFLEPAANETVRHGCLRLNQPTHVNNGNYTLLAANPFGQASASIMAAFMDNPFEFNPEDPIPVSFSPVDTNSTSGDPVEKKDETPFGVSVAVG
With B2 the koff [3] was 0.00061 s⁻¹, the kon [3] was 8.3e+06 M⁻¹ s⁻¹ and the koff [8] was 0.00075 s⁻¹. It also gave a kon [8] of 1.67e+06 M⁻¹ s⁻¹, a Kd [4] of 0.0792 nM and a Kd [5] of 0.38 nM. It also gave a Kd [6] of 3.65 nM and a Kd [7] of 4.33 nM.
